Test results taken from patent US20150351390A1, “COMPOSITIONS AND METHODS FOR AUXIN-ANALOG CONJUGATION” (PIONEER HI-BRED INTERNATIONAL, INC., priority 2012, published 2015).

B1: VvGH3-5: GH3 protein, accession XP_002276241 (protein, listed as Vitis vinifera)
chain: MPEAPKNRGNGAGLGVEGGILDDKNIRALEFIEDVTMNAKEVQMQVLSEIITRNSNVEYLQRHGLNGRVDADTFKKIVPVVTYEDMLPDIERIANGDMSPILCSKPISEFLTSSGTSGGERKLMPTIEEELGRRSLLYSLLMPVMNQSVPGLDEGKGMYFLFVKSEAKTPGGLMARPVLTSYYKSSYFRDRPYDPYTNYTSPNETILCPDSYQSMYSQLLCGLCQNKEVLRVGAVFASGFIRAIRFLEKHWVLLCKDIRAGTLDSQINDPSVREAVKRILKPNPELADFIEAECRRESWEGIITRLWPNTKYIDVIVTGTMSQYIPTLDYYSNGLPLVCTMYASSECYFGLNLNPLCKPSEVSYTLIPTMAYFEFLPVNRKNGFTNVSESAPLNEKEHQELVDLVDVKLGQEYELVVTTYAGLYRYRVGDILCVAGFKNKAPQFKFICRKNVALSIDSDKTDEFELQNAVKNAADHLLQFDASVTEYTSYADTSTIPGHYVLYWEIGLSGATPIPPSVFEDCCLIMEESLNSVYRQGRASDKSIGPLEIRIVEGGTFDKLMDYALSQGASINQYKTPRCVKYAPIIELLNSRVVSNYFSPKCPKWVAGHKQWCT
B2: VvGH3-2: GH3 protein, accession XP_002283886 (protein, listed as Vitis vinifera)
chain: MAVDSGLSSPLGPPACEKDAKALQFIEEMTRNPDQVQEKILAEILSQNGETEYLQRFKLAGATDRDTFKSKVPVVTYEDLQPDIQRIANGDRSPILSSHPISEFLTSSGTSAGERKLMPTIHEEWDRRQKLYSLLMPVMNLYVPGLDKGKGLYFLFVKSETKTPSGLVARPVLTGYYRSEHFKKRPYDPYNVYTSPDEAILCVDSFQSMYAQMLCGLLMHKEVLRVGAVFASGLLRAIRFLQVHWQQLAHDISTGILNPKITDPSVREGLAGILKPSQELADFIIQECSGGNWERIITRIWPNTKYLDVIVTGAMAQYIPTLDYFSGGIPLACTMYASSECYFGLNLKPMSKPSEVSYTIMPNMGYFEFLPHDPSAPPLSRDSPPRLVDLADVEVGKEYELVITTYAGLCRYRVGDILQVTGFHNSAPQFQFIRRKNVLLSIDSDKTDEAELQKAVENASLLLREFNTSVVEYTSFADTKTIPGHYVIYWELLVKDPSNSPTDTVLKQCCLAMEESLNTVYRQGRVADNSIGPLEIRVVKSGTFEELMDYAISRGASINQYKVPRCVNFTPIMELLDSRVLSTYFSPAAPHWTPERRRTD
B3: AIGH3-17: GH3 protein, accession XP_002890761 (protein, listed as Arabidopsis lyrata)
chain: MIPSYDPNDTEAGLKLLDDLTTNAETIQQQVLHQILSQNSGTQYLRAFLDGESDKNQQSFKNKVPVVNYDDIKPFIQRIADGESYDIVSAQPITELLTSSGTSAGKPKLMPSTAEELDRKTFFYSMLVPIMNKYVNGLDEGKGMYLLFIKPEIKTPSGLMARPVLTSYYKSQHFRNRPFNKYNVYTSPDQTILCQDSKQSMYCQLLCGLVQRSHVLRVGAVFASAFLRAVKFLEDHYKELCADIRTGTVTSWITNSSCRDSVLSILNGPNQELADEIESECAEKSWEGILRRIWPKAKYVEVIVTGSMAQYIPTLEFYSGGLPLVSTMYASSECYFGINLNPLCDPADVSYTLLPNMAYFEFLPVDDKSHEEIHFASHSNTDDDDDALKEDLIVDLVNVKVGQYYEIVITTFTGLYRYRVGDILKVTGFHNKAPQFRFVQRRNVVLSIDTDKTSEEDLLNAVTQAKLNHLQHPSSLLLMEYTSYADTSSIPGHYVLFWELKPRHSNDPPKLDDKTMDDCCSEVEDCLDYVYRRCRNRDKSIGPLEIRVVSLGTFDSLMDFCVSQGSSLNQYKTPRCVKSGGALEILDSRVIGRFFSKRVPQWEPLGLDS
B4: RcGH3-6: GH3 protein, accession XP_002533739 (protein, listed as Ricinus communis)
chain: MPEAPKNSLISSDYNLSEKNRKTLQFIEDVTSNPDEVQKKVLEEILTRNARVEYLQKHGLNGYTDRESFKKIMPVIAYEDIQPHINRIANGDTSPILCSKPISEFLTSSGTSGGERKLMPTIEEELGRRSLLYSLLMPVMNQFVPGLEKGKGMYFLFIKSEAKTPGGLVARPVLTSYYKSSHFKDRPFDPYTNYTSPNETILCPDSYQSMYSQMLCGLCQRNDVLRVGAVFASGFIRAIRFLEKHWQLLCNDIRTGTVNPQITDLSVREAVMKILKPDPKLADFIAAECSQESWQGIITRLWPNTKYVDVIVTGTMSQYIPTLDYYSNGLPLVCTMYASSECYFGVNLNPLCKPSEVSYTLIPTMAYFEFLPVHRNNGVTNSISMPKSLNEKEQQELVDLVDVKLGQEYELVVTTYAGLYRYRVGDVLRVAGFKNKAPQFNFICRKNVVLSIDSDKTDEVELQNAVKNAVNHLVPFDATLAEYTSYADTTSIPGHYVLFWEITLNGSTPIPPSIFEDCCLTIEESLNSVYRQGRVSDKSIGPLEIKIVEPGTFDKLMDYAISLGASINQYKTPRCVKFAPIVELLNSRVVSSYFSPKCPKWVPGHKQWGNKN
B5: ThBAJ34606: GH3 protein, accession BAJ34606 (protein, listed as Thellungiella halophila)
chain: MPEAPKNESLEIFDLTLDEKNKRKLQLIEELTSNADQVQRRVLEEILTRNADVEYLRRHDLDGRTDRETFKNVMPVITYEDIQPEINRIANGDKSHILSIKPISEFLTSSGTSGGERKLMPTIEEELDRRSLLYSLLMPVMSQFVPGLDKGKGMYFLFIKSESKTPGGLPARPVLTSYYKSSHFKERPFDPYTNYTSPNETILCPDSYQSMYSQMLCGLCQHQEVLRVGAVFASGFIRAIKFLEKHWTELVCDIRTGVLSSLITDPSVREAVAKILKPNPKLADFVESECKKKSWQGIITRLWPNTKYVDVIVTGTMSQYIPTLDYYSNGLPLVCTMYASSECYFGVNLKPLCKPSEVSYTLIPTMAYFEFLPVHRNTGVTNSINLPKALTEKEQQELVDLVDVKLGQEYELVVTTYAGLCRYRVGDLLRVTGFKNKAPQFSFICRKNVVLSIDSDKTDEVELQNAVKNAVTHLVPFDASLSEYTSYADTSSIPGHYVLFWELCLDGNTPIPPSVFEDCCLAVEESLNTVYRQGRVSDKSIGPLEIKIVEPNTFDKLMDYAISLGASINQYKTPRCVKFAPIIELLNSRVVDSYFSPKCPKWVPGHRQWGSN
B6: VvGH3-3: GH3 protein, accession XP_002283229 (protein, listed as Vitis vinifera)
chain: MPEAPKKSFKATGHDYCLAEKNKKALQFIEDVTTNADQVQKRVLAEILTRNAHVEYLHRHGLGGHTDRDTFKKLMPVITYEDLQPDITRIANGDTSLILCSNPISEFLTSSGTSGGERKLMPTIEEELERRSLLYSLLMPVMSQSVQGLEKGKGMYFLFIKSEAKTPGGLVARPVLTSYYKSSHFRERPYDPYTNYTSPNETILCPDSYQSMYSQMLCGLVQNKEVLRVGAVFASGFIRAIRFLEKHWTLLCRDIRTGTIDQQITDPSVREAVMRVLKPDPKLADFVEGECRKESWQGIITRLWPNTKYVDVIVTGTMSQYIPTLDYYSNDLPLVCTMYASSECYFGVNLNPLCKPSEVSYTLIPTMAYFEFLPVHRNNGTNSISVPKSLNDKEQQDLVDLVDVKLGQEYELVVTTYAGLYRYRVGDVLRVAGFKNKAPQFNFVCRKNVVLSIDSDKTDEVELQAAVKNAVNHLMPFDATLTEYTSYADTTTIPGHYVLYWELSLRGSTPIPPSVFEDCCLTVEESLNSVYRQGRVSDKSIGPLEMKIVESGTFDKLMDYAISLGASINQYKTPRCVKFAPIIELLNSRVVSNYFSPKCPKWIPGHKQWCNKN
B7: VvGH3-1: GH3 protein, accession XP_002271252 (protein, listed as Vitis vinifera)
chain: MAVDPILSSPLGPAASEKDAKALQFIEEMTRNADSVQERVLAEILSRNGETEYLKRFKLEGSTVRETFKSKIPVIKYEDLQPEIQRIANGDRSAILSAHPISEFLTSSGTSAGERKLMPTIQEELDRRQMLYSLLMPVMNLYVPGLDKGKGLYFLFVKSETRTPGGLLARPVLTSYYKSEHFKTRPYDPYNVYTSPNEAILCADSFQSMYTQMLCGIYERKQVLRLGAVFASGLLRAIRFLQLNWHQLTHDIRTGTLSPKITDPSVRNCVAGVLKPDPELADLVAGECSKDNWEGIITRIWPNTKYLDVIVTGAMAQYIPTLDYYSGGLPLACTMYASSECYFGLNLNPMSKPSEVSYTIMPNMAYFEFLPHEHSSIPLSRDSPPRLVDLAHVEVGKEYELVITTYAGLYRYRVGDILRVTGFHNSAPQFHFVRRKNVLLSIDSDKTDEAELQKAVDNASKLLREVNTSVVEYTSFADTKTIPGHYVIYWELLVKDSANSPSDELLGQCCLAMEESLNSVYRQGRVADNSIGPLEIRVVKSGTFEELMDYAISRGASINQYKVPRCVNFTPIMELLDSRVVSSHFSPALPHWTPARRR

assay: LC-MS assay of GH3 conjugation of IAA with Asp or Glu; format: biochemical; conditions: conjugation of IAA with Asp by recombinant GH3 protein; IAA-Asp product by LC-MS
How it was run: (§1)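 N-His-tagged GH3 homologs expressed in E. coli C41(DE3) and Ni-NTA purified (44 to 164 μg/mL) were incubated 3 hours at 30° C. in 20 mM Tris-HCl pH 8.0, 5 mM MgCl2, 1 mM DTT with 5 mM each of auxin, ATP and Asp or Glu. Conjugates were quantified by LC-MS against standards.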

Going from B1 to B2, the “kcat (hrs−1) IAA-Asp” value rises from 759.486 h⁻¹ to 1011.181 h⁻¹.

Going from B3 to B4, the “kcat (hrs−1) IAA-Asp” value rises from 33.508 h⁻¹ to 1037.037 h⁻¹.

Going from B5 to B6, the “kcat (hrs−1) IAA-Asp” value rises from 610.082 h⁻¹ to 1006.325 h⁻¹.

In the case of B7, the “kcat (hrs−1) IAA-Asp” value is reported as 964.027 h⁻¹.

same assay, conditions: conjugation of IAA with Glu by recombinant GH3 protein; IAA-Glu product by LC-MS

First: B1
Second: B2
The “kcat (hrs−1) IAA-Glu” value of the first is higher: 47.289 h⁻¹ for the first, 45.833 h⁻¹ for the second.

First: B3
Second: B4
The “kcat (hrs−1) IAA-Glu” value of the first is higher: 317.690 h⁻¹ for the first, 183.972 h⁻¹ for the second.

First: B5
Second: B6
The “kcat (hrs−1) IAA-Glu” value of the first is lower: 67.109 h⁻¹ for the first, 79.770 h⁻¹ for the second.

In the case of B7, the “kcat (hrs−1) IAA-Glu” value is reported as 45.433 h⁻¹.

assay: LC-MS assay of GH3 conjugation of 2,4-D with Asp or Glu; format: biochemical; conditions: conjugation of 2,4-D with Asp by recombinant GH3 protein; 2,4-D-Asp product by LC-MS; 5 mM 2,4-D substrate
How it was run: as §1

Going from B1 to B2, the “kcat (hrs−1) 2,4-D-Asp” value rises from 2.603 h⁻¹ to 5.691 h⁻¹.

First: B3
Second: B4
The “kcat (hrs−1) 2,4-D-Asp” value of the first is lower: 0.212 h⁻¹ for the first, 4.189 h⁻¹ for the second.

Going from B5 to B6, the “kcat (hrs−1) 2,4-D-Asp” value rises from 4.232 h⁻¹ to 5.615 h⁻¹.

In the case of B7, the “kcat (hrs−1) 2,4-D-Asp” value is reported as 2.529 h⁻¹.

same assay, conditions: conjugation of 2,4-D with Glu by recombinant GH3 protein; 2,4-D-Glu product by LC-MS; 5 mM 2,4-D substrate

Compared with B1, B2 is higher in “kcat (hrs−1) 2,4-D-Glu” value: 0.974 h⁻¹ for the first, 1.113 h⁻¹ for the second.

Compared with B3, B4 is higher in “kcat (hrs−1) 2,4-D-Glu” value: 0.455 h⁻¹ for the first, 2.525 h⁻¹ for the second.

Going from B5 to B6, the “kcat (hrs−1) 2,4-D-Glu” value falls from 1.750 h⁻¹ to 1.602 h⁻¹.

With B7 the “kcat (hrs−1) 2,4-D-Glu” value was 0.635 h⁻¹.
